Source: US6342219

Biological target: VEGF:Flk-1 complex (VEGF associated with sFlk-1) (human; mouse) (UniProt P15692)
Assay: capture ELISA; biotinylated sFlk-1 complexed with VEGF titrated onto antibody-coated wells; concentration giving 50% maximal binding; * extrapolated value

Sequence of A4.6.1 (mouse anti-human VEGF monoclonal antibody from Genentech) (VH): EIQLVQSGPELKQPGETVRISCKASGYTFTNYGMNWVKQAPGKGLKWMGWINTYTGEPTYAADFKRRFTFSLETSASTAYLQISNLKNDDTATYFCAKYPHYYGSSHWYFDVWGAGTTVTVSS
Sequence of A4.6.1 (mouse anti-human VEGF monoclonal antibody from Genentech) (VL): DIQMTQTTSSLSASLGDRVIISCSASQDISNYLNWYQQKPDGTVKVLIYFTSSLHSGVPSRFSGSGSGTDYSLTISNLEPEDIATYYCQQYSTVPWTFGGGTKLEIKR
Sequence of VEGF:Flk-1 complex (VEGF associated with sFlk-1) (human; mouse) (P15692 other isoform, or with tags, fused parts or gaps limits assumed, chain 1 of 2): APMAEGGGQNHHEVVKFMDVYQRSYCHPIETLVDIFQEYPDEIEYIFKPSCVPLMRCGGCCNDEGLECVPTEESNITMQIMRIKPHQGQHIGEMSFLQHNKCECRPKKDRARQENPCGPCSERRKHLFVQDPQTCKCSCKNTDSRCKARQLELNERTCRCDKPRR
Sequence of VEGF:Flk-1 complex (VEGF associated with sFlk-1) (human; mouse) (P35918 20-762 limits assumed, chain 2 of 2, further chain): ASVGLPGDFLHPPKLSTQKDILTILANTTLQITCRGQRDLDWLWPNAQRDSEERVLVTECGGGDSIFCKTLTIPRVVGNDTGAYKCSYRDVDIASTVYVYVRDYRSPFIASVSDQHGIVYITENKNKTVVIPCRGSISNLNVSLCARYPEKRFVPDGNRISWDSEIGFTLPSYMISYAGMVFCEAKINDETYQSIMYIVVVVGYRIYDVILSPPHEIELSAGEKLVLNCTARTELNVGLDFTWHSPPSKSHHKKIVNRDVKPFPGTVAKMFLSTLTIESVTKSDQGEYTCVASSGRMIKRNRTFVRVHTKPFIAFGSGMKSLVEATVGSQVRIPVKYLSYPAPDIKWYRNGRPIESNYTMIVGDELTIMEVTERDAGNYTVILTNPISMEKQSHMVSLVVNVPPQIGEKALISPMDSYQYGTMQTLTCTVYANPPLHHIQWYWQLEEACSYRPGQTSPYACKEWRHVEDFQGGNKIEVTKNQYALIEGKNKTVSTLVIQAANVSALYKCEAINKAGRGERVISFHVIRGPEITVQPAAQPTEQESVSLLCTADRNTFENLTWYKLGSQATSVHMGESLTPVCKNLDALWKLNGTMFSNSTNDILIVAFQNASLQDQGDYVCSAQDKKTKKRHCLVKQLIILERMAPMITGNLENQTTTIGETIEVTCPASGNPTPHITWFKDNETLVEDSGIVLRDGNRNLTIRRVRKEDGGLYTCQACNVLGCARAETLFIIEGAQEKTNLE

EC50: 500 nM
Substance: A4.6.1 (mouse anti-human VEGF monoclonal antibody from Genentech)
